{"source": "paper PMC7780100", "proteins": {"B1": {"name": "mouse ferroportin (Fpn): N437D (protein)", "parent chain": "MTKARDQTHQEGCCGSLANYLTSAKFLLYLGHSLSTWGDRMWHFAVSVFLVELYGNSLLLTAVYGLVVAGSVLVLGAIIGDWVDKNARLKVAQTSLVVQNVSVILCGIILMMVFLHKNELLTMYHGWVLTVCYILIITIANIANLASTATAITIQRDWIVVVAGENRSRLADMNATIRRIDQLTNILAPMAVGQIMTFGSPVIGCGFISGWNLVSMCVEYFLLWKVYQKTPALAVKAALKVEESELKQLTSPKDTEPKPLEGTHLMGEKDSNIRELECEQEPTCASQMAEPFRTFRDGWVSYYNQPVFLAGMGLAFLYMTVLGFDCITTGYAYTQGLSGSILSILMGASAITGIMGTVAFTWLRRKCGLVRTGLFSGLAQLSCLILCVISVFMPGSPLDLSVSPFEDIRSRFVNVEPVSPTTKIPETVFTTEMHMSNMSNVHEMSTKPIPIVSVSLLFAGVIAARIGLWSFDLTVTQLLQENVIESERGIINGVQNSMNYLLDLLHFIMVILAPNPEAFGLLVLISVSFVAMGHLMYFRFAQKTLGNQIFVCGPDEKEVTDENQPNTSVV"}}, "test": "55Fe efflux after 10 µM hepcidin pretreatment, oocytes", "details": "glycan lost; control: wild-type mouse Fpn", "data": [{"protein": "B1", "values": [{"measurement": "other: hepcidin inhibition of transport", "value": "no change"}]}]}
